Measured values taken from PMC8053108, “RPA2 winged-helix domain facilitates UNG-mediated removal of uracil from ssDNA; implications for repair of mutagenic uracil at the replication fork” (Nucleic Acids Research, 2021).

Assays:
[1] = tested on: U10-25* ssDNA substrate; assay: Uracil excision assay, RPA-coated versus naked ssDNA; assay type: biochemical; conditions: 1 μM RPA, 100 nM U10-25* ssDNA; 10 min, 22°C; three independent experiments
Protocol: (§1) 3′-FAM-labelled, PAGE-purified oligonucleotide substrates were from Sigma-Aldrich. Unless otherwise indicated, the substrate (25 nt) harboured uracil at position 10 in a polyC sequence to avoid secondary structures (U10-25*: […]-FAM). Double-stranded substrate was generated by annealing (heating followed by slow cooling) U10-25* to a non-labelled complementary oligo (A16-25: […]). All assays were performed at 22°C in 10 mM Tris–HCl pH 7.5, 50 mM NaCl, 1 mM DTT, 0.1 mM EDTA, 0.5 mg/ml BSA.
(§2) Varying amounts of UNG were then added, and the mixtures incubated for 10 min in a water bath. To avoid unspecific interactions and binding of enzyme and DNA to the assay tube surface, low-DNA binding tubes and excess of BSA was used in all reactions. Reactions were quenched and AP sites cleaved in 10% piperidine at 90°C for 20 min. Samples were dried by vacuum centrifugation and suspended in formamide-containing loading buffer. Product and substrate were separated in 12% PAGE/7M urea–0.5× TBE gels, bands visualised in ChemiDoc™ Imager (Bio-Rad) and quantified by Image Lab software (Bio-Rad). Importantly, all assays in which two parameters were compared (e.g. RPA-coated versus naked substrate or WT versus mutated protein) were performed in parallel with the exact same DNA/protein dilutions.

[2] = tested on: U10-25* dsDNA substrate; assay: Uracil excision assay, dsDNA preincubated with RPA-WT or RPA-ΔWH; assay type: biochemical; conditions: 100 nM U10-25* dsDNA
Protocol: as §1, §2

B1: UNG-CD: catalytic UNG domain, starting at UNG2 aa 93, lacking the N-terminal RPA-binding helix (protein)
chain: GFGESWKKHLSGEFGKPYFIKLMGFVAEERKHYTVYPPPHQVFTWTQMCDIKDVKVVILGQDPYHGPNQAHGLCFSVQRPVPPPPSLENIYKELSTDIEDFVHPGHGDLSGWAKQGVLLLNAVLTVRAHQANSHKERGWEQFTDAVVSWLNQNSNGLVFLLWGSYAQKKGSAIDRKRHHVLQTAHPSPLSVYRGFFGCRHFSKTNELLQKSGKKPIDWKEL
[1]
  fold reduced activity with RPA-coated ssDNA compared to naked DNA substrate: 1000 fold
[2]; 500 nM RPA-WT
  fold increased enzyme concentration to convert similar amounts of substrate in presence of RPA-WT: ~200 fold
[2]; 500 nM RPA-ΔWH
  fold increased enzyme concentration to convert similar amounts of substrate in presence of RPA-ΔWH: ~50 fold
